How the values were obtained:
[1] = biological target: Bax (single cysteine 126C, Alexa647-labeled, recombinant), Q07812; assay: FRET; conditions: chain shown with the change, 20 nM Alexa568-labeled BimL mutant (FRET donor), Alexa647-labeled Bax acceptor
[2] = biological target: Bcl-XL (single cysteine 152C, Alexa647-labeled, recombinant), Q07817-1; assay: FRET; conditions: chain shown with the change, 20 nM Alexa568-labeled BimL mutant (FRET donor), Alexa647-labeled Bcl-XL acceptor
[3] = membranes present (liposomes), apparent Kd, parent: 29±1
[4] = membranes present (liposomes), apparent Kd, parent: 1±1

Bcl-XL (single cysteine 152C, Alexa647-labeled, recombinant), Q07817-1, sequence (Q07817 whole entry): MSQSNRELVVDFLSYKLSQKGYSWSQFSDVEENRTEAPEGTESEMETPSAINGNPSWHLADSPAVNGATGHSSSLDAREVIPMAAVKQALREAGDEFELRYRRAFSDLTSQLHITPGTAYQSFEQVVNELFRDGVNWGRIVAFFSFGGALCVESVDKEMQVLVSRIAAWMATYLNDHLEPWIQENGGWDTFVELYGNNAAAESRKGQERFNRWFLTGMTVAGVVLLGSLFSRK
Bax (single cysteine 126C, Alexa647-labeled, recombinant), Q07812, sequence (Q07812 whole entry): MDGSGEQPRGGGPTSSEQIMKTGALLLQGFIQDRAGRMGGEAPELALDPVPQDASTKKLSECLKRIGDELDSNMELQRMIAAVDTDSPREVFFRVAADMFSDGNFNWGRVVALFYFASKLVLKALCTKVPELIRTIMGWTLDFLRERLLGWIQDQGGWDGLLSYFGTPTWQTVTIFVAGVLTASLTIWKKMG

B1: BimL (single cysteine Q41C, Alexa568-labeled, recombinant) I90E; L94E; I97E; F101E (protein)
chain: MHHHHHHGGSGGTGGSENLYFQGTMAKQPSDVSSECDREGGQLQPAERPPQLRPGAPTSLQTEPCDRSPAPMSCDKSTQTPSPPCQAFNHYLSAMASIRQSQEEPEDLRPEIREAQEERREGDEENETYTRRVFANDYREAEDHPQMVILQLLRFIFRLVWRRH
In the case of B1, the Kd ([1]; in solution, parent: 59±7) is reported as > 1000 nM, the Kd [1, 3] is reported as > 1000 nM and the Kd ([2]; in solution, parent: 8±0.4) is reported as > 1000 nM. For the same binder, the Kd [2, 4] was > 1000 nM.

B2: BimL (single cysteine Q41C, Alexa568-labeled, recombinant) I132E (protein)
chain: MHHHHHHGGSGGTGGSENLYFQGTMAKQPSDVSSECDREGGQLQPAERPPQLRPGAPTSLQTEPCDRSPAPMSCDKSTQTPSPPCQAFNHYLSAMASIRQSQEEPEDLRPEIRIAQELRRIGDEFNETYTRRVFANDYREAEDHPQMVILQLLRFEFRLVWRRH
A Kd ([2]; in solution, parent: 8±0.4) of 10 nM and a Kd [2, 4] of 2 nM were found for B2 in this work.

B3: BimL (single cysteine Q41C, Alexa568-labeled, recombinant) R130A; R134A (protein)
chain: MHHHHHHGGSGGTGGSENLYFQGTMAKQPSDVSSECDREGGQLQPAERPPQLRPGAPTSLQTEPCDRSPAPMSCDKSTQTPSPPCQAFNHYLSAMASIRQSQEEPEDLRPEIRIAQELRRIGDEFNETYTRRVFANDYREAEDHPQMVILQLLAFIFALVWRRH
A Kd [1, 3] of 64 nM and a Kd [2, 4] of 20 nM were found for B3 in this work.

B4: BimL (single cysteine Q41C, Alexa568-labeled, recombinant) V124E (protein)
chain: MHHHHHHGGSGGTGGSENLYFQGTMAKQPSDVSSECDREGGQLQPAERPPQLRPGAPTSLQTEPCDRSPAPMSCDKSTQTPSPPCQAFNHYLSAMASIRQSQEEPEDLRPEIRIAQELRRIGDEFNETYTRRVFANDYREAEDHPQMEILQLLRFIFRLVWRRH
A Kd [1, 3] of 95 nM and a Kd [2, 4] of 2 nM were found for B4 in this work.

B5: BimL (single cysteine Q41C, Alexa568-labeled, recombinant) L129E (protein)
chain: MHHHHHHGGSGGTGGSENLYFQGTMAKQPSDVSSECDREGGQLQPAERPPQLRPGAPTSLQTEPCDRSPAPMSCDKSTQTPSPPCQAFNHYLSAMASIRQSQEEPEDLRPEIRIAQELRRIGDEFNETYTRRVFANDYREAEDHPQMVILQLERFIFRLVWRRH
A Kd [2, 4] of 5 nM was found for B5 in this work.
